Source: patent EP2319931A1 (Inhibitex, Inc., dated 2011)

B2: biotinylated ClfA region A protein (other)
chain: SENSVTQSDSASNESKSNDSSSVSAAPKTDDTNVSDTKTSSNTNNGETSVAQNPAQQETTQSSSTNATTEETPVTGEATTTTTNQANTPATTQSSNTNAEELVNQTSNETTFNDTNTVSSVNSPQNSTNAENVSTTQDTSTEATPSNNESAPQSTDASNKDVVNQAVNTSAPRMRAFSLAAVAADAPAAGTDITNQLTNVTVGIDSGTTVYPHQAGYVKLNYGFSVPNSAVKGDTFKITVPKELNLNGVTSTAKVPPIMAGDQVLANGVIDSDGNVIYTFTDYVNTKDDVKATLTMPAYIDPENVKKTGNVTLATGIGSTTANKTVLVDYEKYGKFYNLSIKGTIDQIDKTNNTYRQTIYVNPSGDNVIAPVLTGNLKPNTDSNALIDQQNTSIKVYKVDNAADLSESYFVNPENFEDVTNSVNITFPNPNQYKVEFNTPDDQITTPYIVVVNGHIDPNSKGDLALRSTLYGYNSNIIWRSMSWDNEVAFNNGSGSGDGIDKPVVPEQPDEPGEIEPIPE
modifications: biotinylated (sites not given)
notes: domain: region A; also called biotinylated recombinant region A from ClfA; C1fA region A
B4: biotinylated ClfB (His-tag recombinant region A) (other)
chain: SEQSNDTTQSSKNNASADSEKNNMIETPQLNTTANDTSDISANTNSANVDSTTKPMSTQTSNTTTTEPASTNETPQPTAIKNQATAAKMQDQTVPQEGNSQVDNKTTNDANSIATNSELKNSQTLDLPQSSPQTISNAQGTSKPSVRTRAVRSLAVAEPVVNAADAKGTNVNDKVTASNFKLEKTTFDPNQSGNTFMAANFTVTDKVKSGDYFTAKLPDSLTGNGDVDYSNSNNTMPIADIKSTNGDVVAKATYDILTKTYTFVFTDYVNNKENINGQFSLPLFTDRAKAPKSGTYDANINIADEMFNNKITYNYSSPIAGIDKPNGANISSQIIGVDTASGQNTYKQTVFVNPKQRVLGNTWVYIKGYQDKIEESSGKVSATDTKLRIFEVNDTSKLSDSYYADPNDSNLKEVTDQFKNRIYYEHPNVASIKFGDITKTYVVLVEGHYDNTGKNLKTQVIQENVDPVTNRDYSIFGWNNENVVRYGGGSADGDSAVN
modifications: Biotinylated with EZ link-sulfo-NHS-LC-Biotin (sites not given); N-terminal His-tag from pV4 left off.
notes: Region A (S45 to N542) amplified from S. aureus Newman genomic DNA, cloned in His-tag vector pV4, purified on nickel; also called ClfB region A; biotinylated purified ClfB region A

Tests used:
[1] = target: B2; experiment: Western affinity blot (Figure 22), blotted human fibrinogen probed with 2.5 µg/ml biotinylated region A
bovine serum albumin = target: T1, bovine serum albumin (bovine, UniProt P02769 25-607); experiment: direct ELISA, biotinylated region A on BSA-coated plates
T1 construct: Negative control coat in ELISA; also called BSA

human fibrinogen = target: T2, human fibrinogen (human, UniProt P02671 20-629; P02675 31-491; P02679 27-437); experiment: direct ELISA, biotinylated region A on fibrinogen-coated plates (Figure 14)
T2 construct: Purified human fibrinogen, bought (Chromogenix for ELISA, Calbiochem for clumping); The plate adherence assays say only 'fibrinogen'; also called solid phase fibrinogen; immobilized fibrinogen
T2 sequence 1: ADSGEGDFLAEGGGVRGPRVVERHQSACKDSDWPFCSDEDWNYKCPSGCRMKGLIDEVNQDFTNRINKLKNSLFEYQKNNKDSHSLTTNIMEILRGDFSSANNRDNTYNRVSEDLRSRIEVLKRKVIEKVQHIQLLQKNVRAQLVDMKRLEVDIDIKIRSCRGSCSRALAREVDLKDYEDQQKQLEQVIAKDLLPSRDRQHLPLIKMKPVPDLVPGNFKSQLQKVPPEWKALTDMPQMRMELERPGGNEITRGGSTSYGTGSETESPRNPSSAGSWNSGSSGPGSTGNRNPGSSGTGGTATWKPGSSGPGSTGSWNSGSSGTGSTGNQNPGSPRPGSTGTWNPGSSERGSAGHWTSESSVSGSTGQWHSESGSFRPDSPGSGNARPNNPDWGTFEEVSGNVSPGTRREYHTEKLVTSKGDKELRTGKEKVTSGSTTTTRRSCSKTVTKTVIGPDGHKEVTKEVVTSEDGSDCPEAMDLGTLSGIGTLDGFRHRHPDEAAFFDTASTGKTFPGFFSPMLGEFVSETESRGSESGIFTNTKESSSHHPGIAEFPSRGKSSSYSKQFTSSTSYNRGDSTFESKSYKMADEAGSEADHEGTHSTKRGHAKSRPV
T2 sequence 2: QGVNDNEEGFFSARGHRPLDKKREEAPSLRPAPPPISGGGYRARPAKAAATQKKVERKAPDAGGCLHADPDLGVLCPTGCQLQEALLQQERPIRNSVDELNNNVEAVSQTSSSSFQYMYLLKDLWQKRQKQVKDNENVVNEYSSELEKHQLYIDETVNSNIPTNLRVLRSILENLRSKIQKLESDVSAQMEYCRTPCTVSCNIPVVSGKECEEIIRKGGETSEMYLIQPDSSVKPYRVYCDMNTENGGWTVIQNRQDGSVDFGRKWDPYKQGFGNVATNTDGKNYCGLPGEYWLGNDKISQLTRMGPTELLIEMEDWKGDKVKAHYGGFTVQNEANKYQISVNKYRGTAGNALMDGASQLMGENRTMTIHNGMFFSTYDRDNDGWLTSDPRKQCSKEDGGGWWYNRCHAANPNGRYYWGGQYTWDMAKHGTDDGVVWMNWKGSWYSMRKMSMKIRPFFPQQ
T2 sequence 3: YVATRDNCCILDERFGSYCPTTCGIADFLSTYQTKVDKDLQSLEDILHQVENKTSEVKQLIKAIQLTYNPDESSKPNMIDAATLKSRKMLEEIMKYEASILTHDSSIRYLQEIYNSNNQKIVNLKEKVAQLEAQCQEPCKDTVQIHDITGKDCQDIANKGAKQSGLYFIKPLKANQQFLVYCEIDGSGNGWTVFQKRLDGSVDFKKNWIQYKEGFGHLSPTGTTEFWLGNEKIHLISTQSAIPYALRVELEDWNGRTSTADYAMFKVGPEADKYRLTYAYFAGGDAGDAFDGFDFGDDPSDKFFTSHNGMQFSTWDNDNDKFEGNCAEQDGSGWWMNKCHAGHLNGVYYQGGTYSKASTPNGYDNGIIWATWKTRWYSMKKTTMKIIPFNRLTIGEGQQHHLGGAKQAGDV

[2] = target: B4; experiment: Western affinity blot, blotted human fibrinogen probed with 2.5 µg/ml biotinylated ClfB region A
[3] = target: T3, alpha chain of human fibrinogen (human, UniProt P02671 20-629); experiment: as above
T3 construct: Band of human fibrinogen (Chromogenix) after SDS-PAGE, on nitrocellulose; also called α chain of fibrinogen
T3 sequence: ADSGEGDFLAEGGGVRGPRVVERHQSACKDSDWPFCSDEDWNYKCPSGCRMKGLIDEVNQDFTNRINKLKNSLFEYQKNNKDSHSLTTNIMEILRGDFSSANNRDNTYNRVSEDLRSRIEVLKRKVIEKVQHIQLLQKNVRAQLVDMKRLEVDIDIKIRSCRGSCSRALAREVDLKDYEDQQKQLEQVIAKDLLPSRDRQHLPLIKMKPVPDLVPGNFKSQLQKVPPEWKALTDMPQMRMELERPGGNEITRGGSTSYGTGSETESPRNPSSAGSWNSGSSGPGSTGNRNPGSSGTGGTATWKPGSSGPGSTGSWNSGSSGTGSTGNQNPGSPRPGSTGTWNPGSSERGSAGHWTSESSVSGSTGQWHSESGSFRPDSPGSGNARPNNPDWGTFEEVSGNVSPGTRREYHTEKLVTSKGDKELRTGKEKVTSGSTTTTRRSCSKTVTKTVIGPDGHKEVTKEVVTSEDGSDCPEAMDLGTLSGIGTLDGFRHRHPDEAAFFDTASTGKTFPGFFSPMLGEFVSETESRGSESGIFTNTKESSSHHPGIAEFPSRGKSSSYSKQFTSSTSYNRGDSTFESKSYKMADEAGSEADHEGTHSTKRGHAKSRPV

T1 sequence (P02769 25-607 limits assumed): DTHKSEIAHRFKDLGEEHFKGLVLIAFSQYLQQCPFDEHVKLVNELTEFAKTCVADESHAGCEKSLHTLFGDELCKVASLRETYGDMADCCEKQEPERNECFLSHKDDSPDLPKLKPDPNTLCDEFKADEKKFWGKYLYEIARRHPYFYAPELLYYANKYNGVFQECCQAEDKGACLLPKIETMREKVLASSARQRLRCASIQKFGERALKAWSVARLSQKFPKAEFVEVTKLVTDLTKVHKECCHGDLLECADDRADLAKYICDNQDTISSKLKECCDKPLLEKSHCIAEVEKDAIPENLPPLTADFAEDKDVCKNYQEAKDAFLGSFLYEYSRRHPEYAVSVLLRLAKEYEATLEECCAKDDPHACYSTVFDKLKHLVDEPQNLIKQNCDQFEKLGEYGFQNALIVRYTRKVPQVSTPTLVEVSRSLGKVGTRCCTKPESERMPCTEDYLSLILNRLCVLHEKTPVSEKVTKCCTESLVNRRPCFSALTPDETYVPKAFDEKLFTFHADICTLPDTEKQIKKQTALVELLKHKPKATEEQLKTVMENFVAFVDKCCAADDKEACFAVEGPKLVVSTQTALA

B1: gamma chain of human fibrinogen (other)
chain: YVATRDNCCILDERFGSYCPTTCGIADFLSTYQTKVDKDLQSLEDILHQVENKTSEVKQLIKAIQLTYNPDESSKPNMIDAATLKSRKMLEEIMKYEASILTHDSSIRYLQEIYNSNNQKIVNLKEKVAQLEAQCQEPCKDTVQIHDITGKDCQDIANKGAKQSGLYFIKPLKANQQFLVYCEIDGSGNGWTVFQKRLDGSVDFKKNWIQYKEGFGHLSPTGTTEFWLGNEKIHLISTQSAIPYALRVELEDWNGRTSTADYAMFKVGPEADKYRLTYAYFAGGDAGDAFDGFDFGDDPSDKFFTSHNGMQFSTWDNDNDKFEGNCAEQDGSGWWMNKCHAGHLNGVYYQGGTYSKASTPNGYDNGIIWATWKTRWYSMKKTTMKIIPFNRLTIGEGQQHHLGGAKQAGDV
notes: Band of human fibrinogen (Chromogenix) after SDS-PAGE, on nitrocellulose; also called γ chain of fibrinogen
binding result [1]: binds

B2
binding result (bovine serum albumin): no binding | binding at the highest concentration relative to ClfB region A (human fibrinogen): ~50 % greater than ClfB

B3: beta chain of human fibrinogen (other)
chain: QGVNDNEEGFFSARGHRPLDKKREEAPSLRPAPPPISGGGYRARPAKAAATQKKVERKAPDAGGCLHADPDLGVLCPTGCQLQEALLQQERPIRNSVDELNNNVEAVSQTSSSSFQYMYLLKDLWQKRQKQVKDNENVVNEYSSELEKHQLYIDETVNSNIPTNLRVLRSILENLRSKIQKLESDVSAQMEYCRTPCTVSCNIPVVSGKECEEIIRKGGETSEMYLIQPDSSVKPYRVYCDMNTENGGWTVIQNRQDGSVDFGRKWDPYKQGFGNVATNTDGKNYCGLPGEYWLGNDKISQLTRMGPTELLIEMEDWKGDKVKAHYGGFTVQNEANKYQISVNKYRGTAGNALMDGASQLMGENRTMTIHNGMFFSTYDRDNDGWLTSDPRKQCSKEDGGGWWYNRCHAANPNGRYYWGGQYTWDMAKHGTDDGVVWMNWKGSWYSMRKMSMKIRPFFPQQ
notes: Band of human fibrinogen (Chromogenix) after SDS-PAGE, on nitrocellulose; also called β chain of fibrinogen
binding result [2]: binds

B4
binding result (bovine serum albumin): no binding (tested: 0.1-10 µg/ml) | binding result [3]: binds | binding result (human fibrinogen): binds
